Data as given in paper PMC3735830 (Nature structural & molecular biology, 2013).
Each block holds one binder with its values, some of them ahead of it.

Tests used:
Test in all cases: co-IP
[1] = biological target: MCM2-7-ΔC3 (S. cerevisiae, UniProt P29469;P24279;P30665;P29496;P53091;P38132)
[2] = biological target: MCM2-7 (S. cerevisiae, UniProt P29469;P24279;P30665;P29496;P53091;P38132)
[3] = biological target: Origin Recognition Complex (ORC) (S. cerevisiae, UniProt P54784;P32833;P54790;P54791;P50874;P38826)
[4] = biological target: T1, Mcm4 (S. cerevisiae, UniProt P30665 1-933)
T1 sequence: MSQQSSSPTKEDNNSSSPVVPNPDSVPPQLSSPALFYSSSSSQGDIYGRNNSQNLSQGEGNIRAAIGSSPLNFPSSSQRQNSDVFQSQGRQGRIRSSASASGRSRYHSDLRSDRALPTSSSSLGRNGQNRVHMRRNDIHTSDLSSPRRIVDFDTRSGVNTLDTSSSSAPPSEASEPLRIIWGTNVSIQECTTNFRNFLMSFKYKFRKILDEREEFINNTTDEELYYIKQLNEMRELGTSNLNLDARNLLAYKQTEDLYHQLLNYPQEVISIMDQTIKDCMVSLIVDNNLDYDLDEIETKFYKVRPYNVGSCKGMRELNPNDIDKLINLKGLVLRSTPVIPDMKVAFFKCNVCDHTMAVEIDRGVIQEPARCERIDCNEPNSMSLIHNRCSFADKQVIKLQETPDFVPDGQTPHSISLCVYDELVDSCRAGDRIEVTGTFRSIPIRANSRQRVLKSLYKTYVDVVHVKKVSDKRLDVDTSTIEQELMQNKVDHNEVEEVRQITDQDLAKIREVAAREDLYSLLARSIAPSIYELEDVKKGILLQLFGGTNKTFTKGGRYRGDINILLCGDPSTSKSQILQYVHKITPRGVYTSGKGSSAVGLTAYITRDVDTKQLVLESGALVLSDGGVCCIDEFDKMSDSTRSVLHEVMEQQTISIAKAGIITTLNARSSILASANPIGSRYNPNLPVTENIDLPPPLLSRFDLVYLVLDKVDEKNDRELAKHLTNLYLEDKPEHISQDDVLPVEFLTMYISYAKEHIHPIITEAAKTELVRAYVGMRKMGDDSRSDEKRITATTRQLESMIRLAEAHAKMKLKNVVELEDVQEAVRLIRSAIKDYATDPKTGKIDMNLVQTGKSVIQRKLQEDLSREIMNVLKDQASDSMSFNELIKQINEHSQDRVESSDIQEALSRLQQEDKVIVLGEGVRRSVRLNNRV

[5] = biological target: Mcm3 (S. cerevisiae, UniProt P24279 1-971)
Sequence of Mcm3 (P24279 whole entry): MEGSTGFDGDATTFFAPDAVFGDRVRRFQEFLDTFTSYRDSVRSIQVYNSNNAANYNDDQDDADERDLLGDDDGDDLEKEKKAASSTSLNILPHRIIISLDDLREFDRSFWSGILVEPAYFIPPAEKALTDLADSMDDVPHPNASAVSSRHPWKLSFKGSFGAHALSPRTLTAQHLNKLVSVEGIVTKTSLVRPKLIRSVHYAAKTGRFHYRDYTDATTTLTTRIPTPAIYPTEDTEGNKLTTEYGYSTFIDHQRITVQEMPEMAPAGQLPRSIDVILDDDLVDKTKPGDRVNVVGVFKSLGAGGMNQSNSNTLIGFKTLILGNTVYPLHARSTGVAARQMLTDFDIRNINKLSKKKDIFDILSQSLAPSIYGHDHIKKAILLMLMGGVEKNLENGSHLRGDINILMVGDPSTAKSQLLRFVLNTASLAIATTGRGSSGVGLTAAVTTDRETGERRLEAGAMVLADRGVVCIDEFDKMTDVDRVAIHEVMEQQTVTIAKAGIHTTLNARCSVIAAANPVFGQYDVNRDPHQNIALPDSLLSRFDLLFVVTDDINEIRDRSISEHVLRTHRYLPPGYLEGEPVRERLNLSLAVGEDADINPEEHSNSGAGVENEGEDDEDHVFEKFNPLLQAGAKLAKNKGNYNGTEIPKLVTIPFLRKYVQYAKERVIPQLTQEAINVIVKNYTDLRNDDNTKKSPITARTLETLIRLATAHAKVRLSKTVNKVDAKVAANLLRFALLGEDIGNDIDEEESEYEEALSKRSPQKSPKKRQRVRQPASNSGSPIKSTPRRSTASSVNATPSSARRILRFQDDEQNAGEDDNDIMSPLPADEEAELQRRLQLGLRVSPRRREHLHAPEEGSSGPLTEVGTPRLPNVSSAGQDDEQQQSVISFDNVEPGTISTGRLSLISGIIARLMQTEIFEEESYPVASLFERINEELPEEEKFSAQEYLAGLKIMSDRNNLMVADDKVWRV

Sequence of MCM2-7-ΔC3 (P24279 1-739, stated change not applied, chain 2 of 4): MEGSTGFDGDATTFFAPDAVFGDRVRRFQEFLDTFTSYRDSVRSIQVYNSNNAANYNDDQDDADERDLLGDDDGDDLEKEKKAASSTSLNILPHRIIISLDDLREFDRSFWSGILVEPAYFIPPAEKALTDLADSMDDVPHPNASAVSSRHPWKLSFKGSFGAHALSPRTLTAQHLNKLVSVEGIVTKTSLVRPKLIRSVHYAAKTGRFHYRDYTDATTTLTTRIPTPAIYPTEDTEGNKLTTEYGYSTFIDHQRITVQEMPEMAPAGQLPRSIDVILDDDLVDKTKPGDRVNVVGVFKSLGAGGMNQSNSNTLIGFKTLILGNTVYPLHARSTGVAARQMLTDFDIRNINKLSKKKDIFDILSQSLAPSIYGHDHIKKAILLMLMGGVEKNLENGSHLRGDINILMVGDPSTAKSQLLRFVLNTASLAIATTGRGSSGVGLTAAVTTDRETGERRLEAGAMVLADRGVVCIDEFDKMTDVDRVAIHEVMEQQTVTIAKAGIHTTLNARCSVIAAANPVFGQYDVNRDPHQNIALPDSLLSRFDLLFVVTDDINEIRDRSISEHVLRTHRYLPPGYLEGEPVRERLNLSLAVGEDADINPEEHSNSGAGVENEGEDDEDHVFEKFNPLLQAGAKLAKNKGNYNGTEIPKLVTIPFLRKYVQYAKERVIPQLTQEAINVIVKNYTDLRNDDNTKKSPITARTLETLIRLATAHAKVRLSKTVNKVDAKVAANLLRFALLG
Sequence of MCM2-7-ΔC3 (P29496 whole entry, stated change not applied, chain 4 of 4): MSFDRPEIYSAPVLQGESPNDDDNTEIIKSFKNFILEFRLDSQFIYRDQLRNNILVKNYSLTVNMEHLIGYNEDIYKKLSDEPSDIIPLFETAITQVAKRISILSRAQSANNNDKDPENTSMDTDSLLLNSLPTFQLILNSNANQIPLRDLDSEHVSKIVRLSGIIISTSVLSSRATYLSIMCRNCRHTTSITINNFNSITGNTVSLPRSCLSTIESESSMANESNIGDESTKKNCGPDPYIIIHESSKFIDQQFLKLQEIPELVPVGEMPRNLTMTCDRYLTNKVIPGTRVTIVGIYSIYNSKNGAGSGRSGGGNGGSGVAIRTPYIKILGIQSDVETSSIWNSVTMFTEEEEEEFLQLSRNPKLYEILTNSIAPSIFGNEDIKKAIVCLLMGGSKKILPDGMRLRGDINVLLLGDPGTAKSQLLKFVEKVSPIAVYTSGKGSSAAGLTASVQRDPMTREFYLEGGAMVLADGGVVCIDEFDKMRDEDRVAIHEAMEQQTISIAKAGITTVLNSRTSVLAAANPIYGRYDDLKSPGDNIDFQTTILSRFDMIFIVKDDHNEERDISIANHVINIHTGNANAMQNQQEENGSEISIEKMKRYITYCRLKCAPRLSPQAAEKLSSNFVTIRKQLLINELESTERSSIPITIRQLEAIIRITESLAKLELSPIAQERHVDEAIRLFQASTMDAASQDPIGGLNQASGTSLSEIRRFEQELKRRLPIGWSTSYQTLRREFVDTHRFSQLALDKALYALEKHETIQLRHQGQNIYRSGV
Sequence of MCM2-7-ΔC3 (P53091 whole entry, stated change not applied, chain 5 of 4): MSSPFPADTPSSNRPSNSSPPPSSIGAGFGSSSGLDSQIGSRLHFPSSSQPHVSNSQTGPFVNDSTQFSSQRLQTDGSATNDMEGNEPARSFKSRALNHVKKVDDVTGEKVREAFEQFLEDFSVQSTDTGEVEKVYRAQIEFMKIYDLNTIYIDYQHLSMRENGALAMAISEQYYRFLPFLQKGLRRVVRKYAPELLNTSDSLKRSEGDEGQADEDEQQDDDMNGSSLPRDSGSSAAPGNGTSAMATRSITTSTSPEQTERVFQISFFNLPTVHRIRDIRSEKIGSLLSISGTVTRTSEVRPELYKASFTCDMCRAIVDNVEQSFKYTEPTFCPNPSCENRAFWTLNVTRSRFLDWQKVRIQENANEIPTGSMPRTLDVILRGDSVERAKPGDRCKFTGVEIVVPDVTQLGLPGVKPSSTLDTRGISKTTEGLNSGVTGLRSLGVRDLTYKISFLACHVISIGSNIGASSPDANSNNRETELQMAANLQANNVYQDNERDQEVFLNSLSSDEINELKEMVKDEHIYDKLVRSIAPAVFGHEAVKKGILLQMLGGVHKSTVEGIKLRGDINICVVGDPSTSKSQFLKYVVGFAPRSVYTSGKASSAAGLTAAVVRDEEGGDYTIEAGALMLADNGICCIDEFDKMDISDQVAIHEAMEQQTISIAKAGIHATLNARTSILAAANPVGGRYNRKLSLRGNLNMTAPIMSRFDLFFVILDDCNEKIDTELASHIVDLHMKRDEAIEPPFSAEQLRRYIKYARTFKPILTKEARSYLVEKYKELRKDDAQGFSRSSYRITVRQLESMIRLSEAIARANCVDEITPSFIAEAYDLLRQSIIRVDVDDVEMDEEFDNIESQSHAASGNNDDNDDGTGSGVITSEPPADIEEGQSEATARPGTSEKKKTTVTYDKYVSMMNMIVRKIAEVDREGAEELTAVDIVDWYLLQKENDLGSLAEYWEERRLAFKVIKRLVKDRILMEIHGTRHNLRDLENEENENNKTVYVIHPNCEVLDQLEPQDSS
Sequence of MCM2-7-ΔC3 (P38132 whole entry, stated change not applied, chain 6 of 4): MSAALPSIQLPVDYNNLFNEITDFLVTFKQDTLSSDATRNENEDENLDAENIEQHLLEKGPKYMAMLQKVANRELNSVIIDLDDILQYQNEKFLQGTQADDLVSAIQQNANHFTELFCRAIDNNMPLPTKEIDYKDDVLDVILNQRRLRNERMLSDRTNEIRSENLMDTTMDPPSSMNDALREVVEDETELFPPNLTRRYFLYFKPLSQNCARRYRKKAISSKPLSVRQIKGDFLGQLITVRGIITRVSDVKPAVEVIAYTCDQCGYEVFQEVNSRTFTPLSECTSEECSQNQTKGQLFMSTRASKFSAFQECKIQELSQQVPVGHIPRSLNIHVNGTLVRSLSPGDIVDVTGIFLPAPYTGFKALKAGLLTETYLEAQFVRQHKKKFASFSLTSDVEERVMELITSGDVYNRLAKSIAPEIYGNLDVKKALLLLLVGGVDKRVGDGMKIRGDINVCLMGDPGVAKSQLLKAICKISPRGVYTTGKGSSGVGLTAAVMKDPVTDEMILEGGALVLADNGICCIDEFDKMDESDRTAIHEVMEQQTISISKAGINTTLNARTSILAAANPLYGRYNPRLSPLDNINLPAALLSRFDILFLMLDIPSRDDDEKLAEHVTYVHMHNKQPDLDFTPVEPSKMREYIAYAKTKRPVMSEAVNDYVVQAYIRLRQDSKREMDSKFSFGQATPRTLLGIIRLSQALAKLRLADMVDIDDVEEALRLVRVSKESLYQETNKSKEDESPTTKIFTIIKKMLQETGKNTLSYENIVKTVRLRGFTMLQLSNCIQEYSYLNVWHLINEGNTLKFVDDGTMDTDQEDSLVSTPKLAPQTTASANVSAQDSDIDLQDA
Sequence of MCM2-7 (P24279 whole entry, chain 2 of 4): as the sequence (P24279 whole entry) above
Sequence of MCM2-7 (P29496 whole entry, chain 4 of 4): as the sequence (P29496 whole entry, stated change not applied, chain 4 of 4) above
Sequence of MCM2-7 (P53091 whole entry, chain 5 of 4): as the sequence (P53091 whole entry, stated change not applied, chain 5 of 4) above
Sequence of MCM2-7 (P38132 whole entry, chain 6 of 4): as the sequence (P38132 whole entry, stated change not applied, chain 6 of 4) above

binding result [1]: binds | binding result [2]: binds
B1: MBP-Cdc6 (natural protein)
chain: MSAIPITPTKRIRRNLFDDAPATPPRPLKRKKLQFTDVTPESSPEKLQFGSQSIFLRTKALLQKSSELVNLNSSDGALPARTAEYEQVMNFLAKAISEHRSDSLYITGPPGTGKTAQLDMIIRQKFQSLPLSLSTPRSKDVLRHTNPNLQNLSWFELPDGRLESVAVTSINCISLGEPSSIFQKIFDSFQDLNGPTLQIKNMQHLQKFLEPYHKKTTFVVVLDEMDRLLHANTSETQSVRTILELFLLAKLPTVSFVLIGMANSLDMKDRFLSRLNLDRGLLPQTIVFQPYTAEQMYEIVIQKMSSLPTIIFQPMAIKFAAKKCAGNTGDLRKLFDVLRGSIEIYELEKRFLLSPTRGSLNSAQVPLTPTTSPVKKSYPEPQGKIGLNYIAKVFSKFVNNNSTRTRIAKLNIQQKLILCTIIQSLKLNSDATIDESFDHYIKAITKTDTLAPLQRNEFLEICTILETCGLVSIKKTKCKGKTKRFVDKIDVDLDMREFYDEMTKISILKPFLH

binding result [3]: binds | binding result [4]: binds | binding result [5]: binds
B2: Mcm2 (natural protein)
chain: MSDNRRRRREEDDSDSENELPPSSPQQHFRGGMNPVSSPIGSPDMINPEGDDNEVDDVPDIDEVEEQMNEVDLMDDNMYEDYAADHNRDRYDPDQVDDREQQELSLSERRRIDAQLNERDRLLRNVAYIDDEDEEQEGAAQLDEMGLPVQRRRRRRQYEDLENSDDDLLSDMDIDPLREELTLESLSNVKANSYSEWITQPNVSRTIARELKSFLLEYTDETGRSVYGARIRTLGEMNSESLEVNYRHLAESKAILALFLAKCPEEMLKIFDLVAMEATELHYPDYARIHSEIHVRISDFPTIYSLRELRESNLSSLVRVTGVVTRRTGVFPQLKYVKFNCLKCGSILGPFFQDSNEEIRISFCTNCKSKGPFRVNGEKTVYRNYQRVTLQEAPGTVPPGRLPRHREVILLADLVDVSKPGEEVEVTGIYKNNYDGNLNAKNGFPVFATIIEANSIKRREGNTANEGEEGLDVFSWTEEEEREFRKISRDRGIIDKIISSMAPSIYGHRDIKTAVACSLFGGVPKNVNGKHSIRGDINVLLLGDPGTAKSQILKYVEKTAHRAVFATGQGASAVGLTASVRKDPITKEWTLEGGALVLADKGVCLIDEFDKMNDQDRTSIHEAMEQQSISISKAGIVTTLQARCSIIAAANPNGGRYNSTLPLAQNVSLTEPILSRFDILCVVRDLVDEEADERLATFVVDSHVRSHPENDEDREGEELKNNGESAIEQGEDEINEQLNARQRRLQRQRKKEEEISPIPQELLMKYIHYARTKIYPKLHQMDMDKVSRVYADLRRESISTGSFPITVRHLESILRIAESFAKMRLSEFVSSYDLDRAIKVVVDSFVDAQKVSVRRQLRRSFAIYTLGH
